In the supplement of paper PMC9170038:

How the values were obtained:
MS2 coat protein [1] = assay: apparent KD of MS2 coat protein; designed switch direction (-1 OFF switch, 1 ON switch): -1; higher = weaker reporter binding; conditions: Eterna round: R98
Protocol: (§1)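 RNA-MaP: designed FMN/MS2 RNA switches (84 nt design region) are transcribed on-chip within common flanks and titrated with SNAP-549-labelled MS2 coat protein (about 1-3000 nM) in 100 mM Tris pH 7.5, 80 mM KCl, 4 mM MgCl2, without or with 200 uM FMN. Median apparent KD per design; activation ratio = KD,OFF / KD,ON.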

MS2 coat protein [2] = assay: apparent KD of MS2 coat protein; designed switch direction (-1 OFF switch, 1 ON switch): 1; higher = weaker reporter binding; conditions: Eterna round: R98
Protocol: as §1

| Sequence | apparent KD of MS2 coat protein (MS2 coat protein [1]; input ligand: FMN 200 uM) [nM] | apparent KD of MS2 coat protein (MS2 coat protein [1]; input ligand: none) [nM] | apparent KD of MS2 coat protein (MS2 coat protein [2]; input ligand: FMN 200 uM) [nM] | apparent KD of MS2 coat protein (MS2 coat protein [2]; input ligand: none) [nM] |
| --- | --- | --- | --- | --- |
| AAAAUAAAGGCAGGAUAUACAUGAAUAAAUAAAAUAAAAUAAAAUAAAACAUGAGGAUCACCCAUGUAGAAGGGCCAAAAUAAA [LRO021_Exclusion NG 2] | 178 | 71.5 |  |  |
| AAAAUAUAGGCAGGAUAUACAUGAAUAUAUAAUAUAAUAUAUAAUAUAACAUGAGGAUCACCCAUGUAGAAGGGCCAUAAUAAA [LRO028_Exclusion NG 2] | 72.7 | 43.7 |  |  |
| ACAUGGAAGCGAGGAUAUGCGGCGGAAACGAACGCAGAAGGCGAAAAAAAAACUCGCAAAAACAUGAGGAUCACCCAUGUAAAA [AK-NGROCr2-ExNG1-4] | 34.8 | 28.5 |  |  |
| AUGACAGGCAGAGCGCAACGGCGAACAUGAGGAUCACCCAUGUAGGAUAUGCUACACAAAGUGUAGCAGAAGGACAUGCGACGC [Ex NG2 #85] | 117 | 25.7 |  |  |
| AUGCCGUGCAGAGCGCGACGGCGAACAUGAGGAUCACCCAUGUAGGAUAUACUACACAAAGUGUAGUAGAAGGACGUGCAACAA [Ex NG2 #97] | 38.1 | 29.8 |  |  |
| CUGGUGAUGUAAGGAUAUGCUGAGGAAUACUCAGCAGAAGGUACAUGAGGAUCACCCAUGUAAAUGAAAGAUAAUAAACACCAG [Excusion NG 1/16-B1] | 29.1 | 14.5 |  |  |
| GCGUAAUUGAUCCUAUUUACCAACAUGAGGAUCACCCAUGUGCAGGAUAUGCUAAAGAUAGAUAAGCAGAAGGGCAAAUACCGC [JR_ExcNG3_Sub003] | 252 | 67 |  |  |
| GGAUGACAAAGUCAUCCUUAACGAACAUGAGGAUCACCCAUGUAGGAUAUGCUACACAAAGUGUAGCAGAAGGACAUGUGCCUU [Mat - Exclusion NG 3 - JL Mod - D88] | 294 | 32.9 |  |  |
| GGUUGUUACGCAGGAUAUUGCCAACAGGCAGUAGGAUAUCCGAAAGGAGAAGGAUUGCCAACAGGCGAGAAGGGCGGGUUAACC [pwkr exNG2 2xF7 2FMN.10.6] | 50.6 | 33.3 |  |  |
| GUAUGACAAAGUCAUACCGCUUUGACAUGAGGAUCACCCAUGUAGGAUAUAUUAAUCAAAGAUUAAUAGAAGGACAUGUUUCUG [Ex NG2 #68] | 175 | 94.6 |  |  |
| UAUAUAAUAAGAGCUGGAAAACUCACAUGAGGAUCACCCAUGUAGGAUAUCAGCACGAUAAGUGCUGAGAAGGACAACCAGCUC [Denovo 73] | 17 | 15.2 |  |  |
| UCGAAGAAGCAAGGAUAUCAAUAUUAGAAAAGAUAAACAUGAGGAUCACCCAUGUAAAUAUGGAGUGAGAAGGUGCAAUAAUUU [JR_SSNG2_Sub098] |  |  | 212 | 557 |
| UCGGUUUUCGCAGGAUAUGGAGGAUACUCCCACAUGAGCAUCAGCCAUGUCUGCAUGGAGGAAGGCCAGAAGGGCGAGAACCGA [United States 2 - Jieux - Same State NG 2] |  |  | 13.5 | 31.6 |
| UUAUAAAAUAUAGGAUAUGGAAACAUGAGGAUCACCCAUGUAUGAUAAGAUAAAUUAUGAUAUAGCCAGAAGGAUACAAUAUAA [LRO010_SS NG 2] |  |  | 35.4 | 32.9 |
| UUUACAUGAGGAUCACCCAUGUUUUGAAAGAUUGGUUUAGGUGAGGAUAUACAUGAUAAUGAAUUGUAGAAGGCACUGGGUACA [JR_SSNG3_Sub029] |  |  | 29.6 | 39.3 |
| UUUGGGAGCACAGGAUAUGGCACCUCGACGGCGCCAGAAGGGUGAUUCUGUUGGUGGCCACAUGAGGAUCACCCAUGUGCCUCC [Inerinusce] |  |  | 44.7 | 76 |
